# Experiments:
# [1] = molecular target: microtubules (polymerized tubulin) (UniProt Q6B856); experiment: co-sedimentation
# [2] = molecular target: full Ska1 complex (Rama1/Ska1/Ska2) (human) (UniProt Q96BD8); experiment: SEC + other: sucrose gradient sedimentation
# Chain of full Ska1 complex (Rama1/Ska1/Ska2) (Q96BD8 whole entry): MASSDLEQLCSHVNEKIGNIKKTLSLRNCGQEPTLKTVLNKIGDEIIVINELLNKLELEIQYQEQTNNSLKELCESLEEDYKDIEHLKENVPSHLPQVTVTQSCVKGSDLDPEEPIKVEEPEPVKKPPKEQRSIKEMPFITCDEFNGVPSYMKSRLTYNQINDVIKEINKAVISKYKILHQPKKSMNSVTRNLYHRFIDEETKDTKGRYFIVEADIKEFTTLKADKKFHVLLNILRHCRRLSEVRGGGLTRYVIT
# Chain of full Ska1 complex (Rama1/Ska1/Ska2) (Q8WVK7 whole entry): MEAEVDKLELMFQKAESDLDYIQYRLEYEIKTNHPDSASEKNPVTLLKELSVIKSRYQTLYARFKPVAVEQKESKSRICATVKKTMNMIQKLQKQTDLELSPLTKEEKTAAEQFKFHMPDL
# Chain of full Ska1 complex (Rama1/Ska1/Ska2) (Q8IX90 whole entry): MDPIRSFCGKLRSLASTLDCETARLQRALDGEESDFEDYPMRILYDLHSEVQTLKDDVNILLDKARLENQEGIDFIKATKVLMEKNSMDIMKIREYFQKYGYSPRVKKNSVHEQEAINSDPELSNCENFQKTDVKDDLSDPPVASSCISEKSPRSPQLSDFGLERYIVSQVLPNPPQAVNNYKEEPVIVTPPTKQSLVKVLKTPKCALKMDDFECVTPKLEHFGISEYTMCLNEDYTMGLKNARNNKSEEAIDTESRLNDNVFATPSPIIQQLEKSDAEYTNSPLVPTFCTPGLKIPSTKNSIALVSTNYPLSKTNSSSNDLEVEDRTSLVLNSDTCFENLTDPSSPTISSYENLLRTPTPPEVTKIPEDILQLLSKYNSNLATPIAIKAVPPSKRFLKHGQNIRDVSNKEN
substance,measurement,setting,value
full Ska1 complex (Rama1/Ska1/Ska2) (from UniProt Q96BD8 1-255; Q8WVK7 1-121; Q8IX90 1-412),stoichiometry N (per tubulin dimer),[1],1
same,stoichiometry N,[2],2

# — PMC2746561
